Experimental data taken from a protein production outcome set (Wang et al. 2014).

Assay: label from the status in PepcDB records

| Sequence | protein production |
| --- | --- |
| MMDYALLSLMLLFTLLLAFILTRLKVSPVIAYLLGGLISFNYFHFDFNSSYFEILNFLALNLLAFEIGTSFDISRAKELFRRAMGIALTELILIVLISYFIGLYLLHLDLFASLFLVMASIDTSTSILYKIIGNKVDKNDRDLLVAVASVEDIEVFFLYSIAIALNGSFNVFRISFVILEVFIASLIIYAFAKYFLTGLSIFKFTSFEDESILILVPIVLVFVFEYISQVTQVPATLTMILAGIAFSSISGSEKVLRYTGPIREFSLIFFFLSVGSYLKITAGISTFVLISFIILAIKYFSFSTASWVSGTTLVKAFTNGLYMLPLSEFGIIVSLQALQQGIDIAIVYYISVVVVLVSSIIASILAVRVNVLQRVIGIVYSRSYFLRQLDSTIIWLNKTLSTNLSPILRSVLFRGFVKMFLYLILPYVLFPIINSIVKSIIDPINNLILQYLLYSGEIVIALFLLYLFLLEGSRLYSIINNEILVRIVRVRSRLFKEFWFGLTSFSSTFYTIILTIIYIIFEIIPLLYNFPIRLVFVPLLISLYFIYRYRAPPITYTRIDNKEADKIVKLSVKVIKKMRKRRSKRSIISTTKTVRREWS | failed |
| MKKNILFIQGGGEGGYEADKHLVASLQQALGKDYAIQYPELSSDETAPDFGWPQQIGTLLSKTDDEIILAAHSLGASMLLKYLSEYVVKNKKIAGVFLLAAPFWEGKEEWKTGLKLKEHFSDTLPKDVPFFFYQCRDDEEVPFSHLEQYRKKLSRAAFREISSGGHTFHTDLSVLATDISAL | failed |
| MTMDGDSSTTDASQLGISADYIGGSHYVIQPHDDTEDSMNDHEDTNGSKESFREQDIYLPIANVARIMKNAIPQTGKIAKDAKECVQECVSEFISFITSEASERCHQEKRKTINGEDILFAMSTLGFDSYVEPLKLYLQKFREAMKGEKGIGGAVSATDGLSEELTEEAFTNQLPAGLITADGQQQNVMVYTTSYQQISGVQQIQFS | failed |
| MKVLAVAYDPRDFGELATGVRDSLGDAELVFLAVHKAAEEPGKASGYSEKVFVSRTSSPESIALLLEKLISEEKPDIIVGEAYKNLRDALSRVAGKLDLPMATDVSSFSVENGKVKFRKGFLSEKAVMEAEIPKPAVILFLTRFTKPKEISPESQARIVELEPPQGETKVVETRPKEMGGANLEEAEIIVGVGRGFKSKEDLKLAFELAELLNAQIGCTRPIAADLKWLSEDHWIGISGKRVAPKLYLAIGISGSPQHMSGVQNAKIIVAVNKDKNAPIFKQADYGVVADLYQFIPVLIKKLRERKSN | failed |
| MKKVFDVWDVETAKRFLEIIKDEPIYYPALIALHTGMRAGEILSLKWCDVNFETRVISIVKSERKNRGLKTVNLKTKTSKRAVYMNDILYKELKNLYEITKPKPDDFVCPRLPTGNLTVNYLSRKFKKLVKKHNFPLIRFHDLRHTFATLMLSLGVNTKIVAEILGHSDIKLTADTYSHVLPTMQEEAMKEFVKLWKLEHHHHHH | not failed |
| MKQHILVLEDANQRRTIILDEQQYSIGRHSGTSIQIHSRQASRHHATLMRKTNSKTNEECFWIIDGDLEGNKSQNGVFVNGEKRLIHELKNGDLINFGCSINASYHVTGEGFGESSSQPVEILPQTSPYNEAVSAQIASSYNTREGVDLLAGSNDETFHEQSYLDTATDLPNQTLFLEYLNIALSNARRHHAQVGVLLCQINNWSDLKRKRGDAVANAFLQEAGQKLKSNLRNGDIVSRWDKDEFIFLVSKVQDTSSLLGIAQRLMKPVLAPVTAGGRPFQPEITYGVALYPVDGEQVNDLIGHIRENLQQLLPQPTNPGSGEADDHIETAVDVRIGAPQPVPGLSDSDQKRLAIVEKRLLRALEQHELELYYQPQINWRKKTIEAMEAFIRWQHPQKGLLPPGQFLPWSDQTEFMVPLTRWILETACQQNVLWQQQLQTPFLVSVNISEKQFYHPLLKNMVMEAIAMAKMETHYLELEIQESTVMKDFGLAQQIITNLHNYGVGFSLDDFGTDYMSLRCLQDLPFQKLKIDKSLTAQLLEQTDNVPNLTMMETLINLGKTFNLKVVAEGVEQEEQINILDSLNCFFMQGYCFSEPLNILAANSFLHKYIAGN | failed |
| MVFFHKKIILNFIYSLMVAFLSHGVLLKADGMAKKQTLLVGERLVWDKLTLLGFLEKNHIPQKLYYNLSSQDKELSAEIQSNVTYYTLRDANNTLIQALIPISQDLQIHIYKKGEDYFLDFIPIIFTRKEKTLLLSLQTSPYQDIIKATNDPLLANQLMNAYKKSVPFKRLVKNDKIAIVYTRDYRVGQAFGQPTIKMAMVSSRSNQYYLFSHSNGHYYDSKAQEVAGFLLETPVKYTRISSPFSYGRFHPVLKVRRPHYGVDYAAKHGSLIHSASDGRVGFMGVKAGYGKVVEIHLNELRLVYAHMSAFANGLKKGSFVKKGQIIGRVGSTGLSTGPHLHFGVYKNSRPINPLGYIRTAKSKLHGKQREVFLEKAQRSKQKLEELLKTHSFEKNSFYLLEGF | failed |
